According to the MegaScale stability set (Tsuboyama et al. 2023):

B1: EEHEE_rd3_1049 (parent)
chain: TTVKLGDIKVTFDNPEKAKKYAQKLAKIYQLTVHVHGDTIHVK
B2: 5KPH (parent)
chain: EEKRQVKQVAKEKLLEQSPNSKVQVRRVQKQGNTIRVELELRTNGKKENYTVEVERQGNTWTVKRITRT

Variants of: B1
Assay: folding stability dG (cDNA display proteolysis); higher = more stable
Conditions: PBS, room temperature

Folding stability dG [kcal/mol] of substitutions, site by site:
T1: C 3.02 | A 1.43 | P 1.02 | V 2.14 | F 2.42 | Y 2.52 | G 0.959 | R 1.28 | N 1.1 | K 1.19 | I 2.27 | S 1.23 | D 0.651 | Q 1.06 | H 1.56 | W 2.77 | E 0.641 | L 1.76 | M 2.14
F12: M 0.628 | A 0.107 | G -0.438 | H 0.172 | K 0.115 | N -0.055 | I 0.634 | D -0.148 | C 1.74 | L 0.617 | E 0.041
V10: L 2.08 | Y 1.95 | I 2.48 | H 1.06 | R 1.79 | K 1.72 | E 0.411 | W 3.21 | P 0.26 | G 0.275 | A 0.985 | F 2.35 | D 0.272 | Q 0.914 | C 2.92 | N 0.575 | T 1.12 | M 2 | S 0.658
V3: W 0.663 | E 0.57 | Y 0.622 | I 1.34 | A 0.626 | S 0.71 | D 0.577 | M 0.732 | F 0.742 | G 0.742 | H 0.671 | L 1.09 | N 0.593 | Q 0.609 | P 0.746 | T 0.665 | K 0.686 | R 0.673 | C 2.3
G6: Y 1.89 | W 2.23 | C 3.09 | A 1.24 | M 1.55 | H 1.75 | F 2.02 | V 1.2 | N 1.45 | D 0.87 | T 0.948 | I 1.49 | L 1.61 | P 0.61 | S 1.05 | E 0.771 | R 1.76 | K 1.41 | Q 1.12
D7: K 3.17 | L 2.69 | T 2.56 | C 3.56 | M 2.63 | E 1.97 | A 2.6 | Q 2.5 | Y 2.94 | N 2.85 | W 3.24 | V 2.52 | S 2.73 | P 2.31 | H 2.79 | G 2.39 | F 2.83 | R 3.21 | I 2.64
K9: G 1.25 | W 2.47 | M 2.34 | A 2.06 | Q 2.06 | V 2.38 | D 1.28 | L 2.39 | P 0.591 | S 2.43 | I 2.46 | R 2.23 | Y 2.42 | N 1.76 | F 2.24 | H 2.06 | C 3.33 | E 2.27 | T 2.42
K4: L 2.47 | W 2.76 | N 1.34 | Y 2.5 | F 2.4 | R 2.18 | V 2.91 | I 3.17 | H 2.07 | M 2.47 | E 1.6 | D 1.09 | S 1.61 | T 1.85 | C 3.22 | A 1.71 | P 0.652 | G 0.845 | Q 2.35
I8: L 2.19 | C 3.42 | Y 2.87 | W 3.22 | T 1.54 | D 0.538 | E 0.747 | F 2.95 | S 1.37 | H 2.62 | P 0.237 | G 0.616 | M 2.1 | K 1.83 | V 1.88 | Q 1.28 | N 1.21 | A 1.18 | R 1.94
T11: M 2.15 | N 1.65 | Q 1.88 | C 2.98 | R 2.24 | S 1.77 | H 2.31 | E 1.58 | L 2.21 | I 2.33 | W 2.74 | G 0.999 | P 1.05 | Y 2.69 | K 2.06 | A 1.48 | V 2.42 | F 2.51 | D 1.08
L5: G 0.536 | M 2.24 | N 0.735 | S 0.683 | Q 0.604 | P 0.495 | E 0.422 | C 3.38 | T 0.739 | D 0.531 | A 0.939 | F 2.71 | V 2.08 | I 2.79 | K 0.76 | H 1.59 | R 0.884 | W 2.83 | Y 2.12
T2: N 1.17 | G 0.901 | H 1.82 | E 1.06 | Y 1.72 | P 0.739 | L 1.51 | K 1.26 | A 1.22 | V 2.12 | C 2.33 | M 1.65 | Q 1.28 | R 1.03 | D 1.01 | I 2.23 | F 1.67 | S 1.4 | W 1.6

Variants of: B2
Assay: as above
Conditions: PBS, room temperature

Folding stability dG [kcal/mol], by site and new letter:
I66: Q 1.95 | N 1.2 | F 3.04 | H 1.67 | C 2.88 | S 2.1 | A 2.2 | G 0.993 | E 1.1 | R 1.28 | M 3.38 | L 3.25 | Y 2.85 | D 0.142 | K 1.54 | V 3.94 | W 3.15 | P 1.72
V63: Y 2.01
K64: A 3.83 | F 3.7 | R 3.94 | S 3.94 | C 3.62 | I 4.47 | G 3.25 | D 2.18 | V 4.3 | M 4.28 | N 3.48 | T 4.29 | W 3.08 | L 4.27 | P 2.28 | H 3.25 | Y 3.5 | Q 3.56 | E 2.86
T69: S 3.75 | P 2.87 | F 3.52 | Y 4 | M 4.13 | D 3.73 | E 3.82 | G 3.7 | R 3.89 | W 4.08 | Q 3.9 | K 3.73 | I 3.99 | A 3.68 | V 3.86 | L 3.98 | N 3.87 | C 3.56 | H 4.21
R68: K 3.99 | G 2.87 | F 3.53 | I 3.67 | T 3 | Q 3.73 | Y 3.32 | A 3.4 | E 3.13 | C 3.34 | M 3.95 | V 3.46 | N 3.89 | P 3.54 | S 3.21 | D 2.65 | W 3.07 | H 3.59 | L 4.21
T67: R 3.73 | L 4.01 | M 3.98 | P 1.34 | A 3.46 | W 4.45 | G 3.01 | F 4.23 | V 3.96 | N 3.32 | H 3.62 | D 3.3 | I 4.09 | Y 4.38 | C 3.68 | E 3.64 | Q 3.54 | K 3.55 | S 3.68
R65: D 3.59 | E 3.61 | C 3.44 | Y 3.7 | Q 3.84 | P 1.4 | I 3.43 | G 3.6 | F 3.53 | K 4.01 | A 4.27 | T 4.05 | L 3.67 | V 3.54 | M 3.84 | S 4.29 | N 3.73 | H 3.58 | W 3.63
